The target in this data set is T1, MAFG-Myc (Homo sapiens, UniProt O15525).
T1 construct: Myc (C); DDK (FLAG)
The data set is described as follows: Enzyme-linked oligonucleotide assay (ELONA) of aptamers and aptamer populations. The class given is binding. As for the experimental part: FIG. 4. Analysis of the affinity of the aptamers against MAFG. (A) Quantification of aptamer-MAFG complexes by qPCR comparing absence (dot pattern) or presence (filled pattern) of MAFG protein. […] Bars represent the mean±SEM of 2-3 experiments (B) Specificity binding assay of aptamers to MAFG performed by ELONA. MAFG-myc was plated at 50ng/well in 96-well plates followed by incubation with 5′ digoxigenin-labeled aptamers from RND40, SEL3MAFG and SEL6MAFG. The figure represents the mean±SEM of 3 independent experiments. p<0.01. (C) Aptacytochemistry in HEK-293T cells transiently transfected with MAFG-myc. Cells overexpressing MAFG were incubated with 5′ Alexafluor 488-conjugated aptamers from RND40, SEL3MAFG or SEL6MAFG (upper panel) or Myc antibody (lower panel). Confocal microscopy images corresponding to the staining of nuclei with Hoechst (blue), antibodies (red), and aptamers (green) are shown. Arrowhead indicates positive cells. Bar=13 μm. (D) Study of individual aptamers affinity performed by ELONA. Recombinant MAFG was plated at 50 ng/well in 96-well plates followed by incubation with 5′ digoxigenin-labeled individual aptamers apMAGF3F, apMAFG6F and apMAFG11F. The figure represents the mean±SD of 2 independent experiments. (E) Secondary structures of aptamers apMAGF3F, apMAFG6F and apMAFG11F obtained by bioinformatics sequence analysis using the mFold software taking into account the lower free energy (AG).
(ii) Enzyme-linked oligonucleotide assay (ELONA): Aptamers were labeled by PCR using 5′ digoxigenin-labeled F3/5′ digoxigenin-labeled R3 primers (IBA Life Sciences). To assess the enrichment of the selected population and the affinity of the individual aptamers for the target, MAFG-Myc (50 ng) was incubated with the rounds 3, 6 of aptamers or the RND40 library. OD405nm values were determined using a SpectraFluor microplate reader (TECAN, Barcelona, Spain).

T1 sequence (O15525 whole entry): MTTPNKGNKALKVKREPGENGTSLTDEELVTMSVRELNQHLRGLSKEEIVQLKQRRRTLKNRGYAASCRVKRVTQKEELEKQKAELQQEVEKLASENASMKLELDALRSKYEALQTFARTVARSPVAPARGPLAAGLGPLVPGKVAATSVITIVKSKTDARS

B1: GCGGATGAAGACTGGTGTCGATGCATGTGTAGTGCATTTCGAGCCGTTCTATTGGTGTGCCCTAAATACGAGCAAC (nucleic acid)
chain: GCGGATGAAGACTGGTGTCGATGCATGTGTAGTGCATTTCGAGCCGTTCTATTGGTGTGCCCTAAATACGAGCAAC
modifications: chemistry not given here
notes: DNA aptamer selected against the MAFG protein by SELEX
On to B1, for which the “affinity against MAFG” value (Example 1, individual aptamers) is reported as “high affinity”. The “binding capacity to the target” value (Example 3, individual sequences from SEL6MAFG) is recorded as “high binding capacity to the target in the nanomolar range”. Also, where the note is “individual sequences from SEL6MAFG”, the “binding signal relative to BSA protein” value was “four times that of the BSA protein”.
